Data on seven compounds can be found in patent publication US11260100B2, “Compositions targeting the interaction domain between p27Kip1 and Brk and methods of use thereof to inhibit p27 Y phosphorylation and cdk4 activity” (The Research Foundation for the State University of New York, priority 2014, dated 2022).

In one assay the test system is metastatic breast cancer. Conditions: metastatic breast cancer patients; cited from earlier work.
The target of a further assay is T1, GST-Brk (Homo sapiens, UniProt Q13882).
T1 construct: this K1-containing peptide was sufficient to associate with full length Brk; purchased SignalChem
In words: GST immunoprecipitation of GST-Brk with p27 and/or F58-106. The class given is binding. How it is done: (§1) FIGS. 3A-3D: SH3:PxxP interaction is required for p27 Y88 phosphorylation. (FIG. 3A) p27 and Brk were incubated with ATP and with increasing concentrations of the PxxP competitor, F58-106, followed by immunoblot analysis with pY88, pY74 and p27 antibodies. Lane 5: +equimolar amount of F58-106 and p27, lane 6: ++2.5×F58-106, lane 7: +++5×F58-106, lane 8: ++++10×F58-106. (FIG. 3B) GST-Brk, p27 and F58-106 were incubated, immunoprecipitated with GST antibodies, followed by immunblot analysis with GST or p27 antibodies. (FIG. 3C) Increasing amounts of GST-SH3, GST-SH2 or GST peptides were incubated with p27, followed by immunoblot analysis with pY88, pY74, p27 and GST antibodies. Lanes 3, 5, 7: 2.5× competitor, lanes 4, 6, […]: 5× competitor. (FIG. 3D) GST-SH3, GST-SH2 or GST peptides were incubated with p27 or ΔK1/K3, followed by metal agarose chromatography and immunoblot analysis with GST and p27 antibodies. Loading control: GST peptides added to the reaction which are not representative of association.
We then performed the converse reaction, and increasing amounts of individual recombinant, GST-tagged pieces of Brk (GST-SH2, GST-SH3) or GST peptides were incubated with p27 before the addition of full length Brk and ATP. The reactions were probed by immunoblot analysis with pY88 and pY74 antibodies (FIG. 3C).

Assay [1] deals with T2, Brk phosphorylation of p27 (Homo sapiens, UniProt P46527+Q13882).
T2 construct: were incubated with p27 before the addition of full length Brk and ATP; We incubated full length p27 with Src or Brk in the presence of ATP; purchased SignalChem (GST-PTK6/Brk) or Invitrogen (His-PTK6/Brk); host or cells: p27 made in house in E. coli
In words: In vitro Brk phosphorylation of p27 with competitor, pY88/pY74 immunoblot. The class given is biochemical. Particulars: increasing amounts of competitor. How it is done: as §1
FIGS. 8A-8G: Alt Brk (SEQ ID NO: 17) acts as an endogenous inhibitor of Brk. (FIG. 8A) Flag tagged WT p27 was incubated with increasing amount of Flag tagged Alt-Brk (lanes 5-7) in presence of equal amount of Brk. Lane 5: +equimolar Brk and Alt, lane 6: ++2.5×Alt, lane 7: +++5×Alt Immunoblot analysis was performed using Flag, pY88 and pY74 antibodies. (FIG. 8B) Alt-Brk expressing cells were plated on day 0. They were induced (+Tet) or uninduced (−Tet) on day 1 and cells were harvested on days 2, 3 and 4 Immunoblot analysis was performed using N-terminal Brk, C-terminal Brk, Rb, Ser780 pRb, Flag or Actin antibodies. (FIG. 8C) p27 was immunoprecipitated from induced (+) or un-induced (−) Alt Brk expressing cells and immunoblot analysis was performed with p27, pY88 and pY74 antibodies. (FIG. 8D) Alt Brk or TRE3G vector alone cells were treated with + or −Tet and cell counts were used to monitor proliferation. […] (FIG. 8F) p27 was immunoprecipitated from MCF7 cells that were either contact arrested (G0), asynchronous (A), or serum starved with 1% and 0% serum for 48 h. Immunoblot analysis was performed to probe for p27, pY88 and pY74. IgG and Mv1Lu lysates served as a negative control. (FIG. 8G) Expression of WT or mutant p27s was induced by adding Tetracycline to the culture media. p27 was immunoprecipitated from cell lysates and probed for p27, pY88 and pY74 Immunoprecipitation with IgG served as a negative control.
It appeared that the SH3:PxxP interaction was required for Y88 phosphorylation. […]
To directly verify this, we expressed a Flag-tagged Alt-Brk in bacteria and purified this 15 Kd protein (FIG. 8A). When p27 was incubated with Brk, Y88 and Y74 phosphorylation was detected by immunoblot analysis (FIG. 8A, lane 3). […]
For orientation: In western blotting, separated proteins are transferred to a membrane and probed.

The target in a further assay is T3, ΔK1/K3 p27 (Homo sapiens, UniProt P46527, K189A/K190A/P188A/P191A/P91A/P92A/P94A/P95A).
T3 construct: made in house; host or cells: E. coli
In words: Metal agarose chromatography of His-ΔK1/K3 p27 with GST peptides. Conditions: absence of ATP. The class given is binding. How it is done:
as §1
(§2) We incubated the GST, GST-SH3, or GST-SH2 peptides with His-tagged versions of p27 and the ΔK1/K3 mutant, isolated complexes by metal agarose chromatography and performed immunoblot analysis with GST antibodies (FIG. 3D). […] However, this binding was independent of the PxxP K1 site (FIG. 3D, lane 3). […]

Another assay has as its target T4, WT p27 (Homo sapiens, UniProt P46527).
T4 construct: made in house; host or cells: E. coli
In words: Metal agarose chromatography of His-p27 with GST peptides. The class given is binding. Particulars: absence of ATP. How it is done:
as §1, §2

The target of the next assay is T5, Brk SH3 domain (Homo sapiens, UniProt Q13882).
T5 construct: made in house; host or cells: phage supernatants
T5 sequence (Q13882 8-72 limits assumed): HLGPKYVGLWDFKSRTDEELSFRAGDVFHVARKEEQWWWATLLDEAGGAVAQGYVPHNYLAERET
In words: Phage-ELISA of GST-PxxP peptides (K1, K2, K3) against SH3 phages. Conditions: GST-fusion PxxP peptides. The class given is binding. An excerpt: (§3) FIGS. 1A-1C: Brk binds to p27 with high affinity in vitro. (FIG. 1A) p27 sequence highlighting the proline tracts of the three putative SH3 domain recruitment sites (PxxP): K1 (90-96), K2 (114-117) and K3 (188-195) (SEQ ID NO: 1). Phage-ELISA-analysis of SFK SH3 interactions with p27 (FIG. 1B) or p27's PxxP motifs (FIG. 1C). Data shown is the mean of three independent experiments±standard deviation after normalization and subtraction of the background binding to GST. (FIG. 1C) Recombinantly produced GST-K1, (amino acids 85-102 of SEQ ID NO: 1), −K2, (amino acids 108-123 of SEQ ID NO: 1), −K3 (amino acids 182-197 of SEQ ID NO: 1), or GST was immobilized in 96-well plates and analyzed for binding of the phages with the Brk-, Frk-, Yes-, or Abl-SH3 domain.
The following materials and methods are provided to facilitate the practice of the present invention. • Antibodies. Mouse Anti-p27(Kip1), BD Biosciences 610242. Cdk4 (DCS-35), p27 (N-20), C-terminal Brk (C-18), Brk (D-6), N-terminal Brk (N-20), c-Src (SC-18), Cyclin D1 (H 295), ARHGDIA (A-20), Santa Cruz Biotechnology. Anti-beta galactosidase antibody is from RND systems (af6464). Phosphotyrosine (P-Tyr-100), Cell Signaling Technology. Cdk4 (C-term, Cat. No. AP7520b), Abgent. GST (PRB-112C), Covance. Flag (F3165), Actin (A2066), Sigma Aldrich. Phospho Brk (Tyr342), EMD Millipore. pY74, Y88 and Y89 phospho-specific antibodies were generated by immunization of rabbits with phosphor-specific p27 peptides (Invitrogen). Negative- and positive-affinity chromatography with non-phosphorylated and phosphorylated peptides respectively, were performed to purify the antibodies. The antibodies are specific only for Y88,Y89, Y74 phosphorylation respectively (FIG. 2B, data not shown). • Enzymes. Gst-PTK6/Brk, GST-Src (SignalChem), His-Abl (New England Biolabs), His-PTK6/Brk, His-Src (Invitrogen) were used according to manufacturer's specifications. […] Phage supernatants were generated and binding of SH3-phages to recombinantly produced His-tagged-p27 or GST-PxxP-peptides was analyzed as described (28). • Construction of mutants and peptides. […]
On the technique in general: An ELISA detects its analyte on a solid surface through an enzyme-linked reagent.

In another assay the target is T6, full-length p27 (Homo sapiens, UniProt P46527).
T6 construct: made in house; host or cells: E. coli
In words: Phage-ELISA of SFK SH3 domain interactions with p27. Conditions: phages carry many reiterated SH3 domains, which would enhance binding; read-out: Kd of interaction with full-length p27.
Source text: as §3
The following materials and methods are provided to facilitate the practice of the present invention. • Antibodies. Mouse Anti-p27(Kip1), BD Biosciences 610242. Cdk4 (DCS-35), p27 (N-20), C-terminal Brk (C-18), Brk (D-6), N-terminal Brk (N-20), c-Src (SC-18), Cyclin D1 (H 295), ARHGDIA (A-20), Santa Cruz Biotechnology. Anti-beta galactosidase antibody is from RND systems (af6464). Phosphotyrosine (P-Tyr-100), Cell Signaling Technology. […] Phage supernatants were generated and binding of SH3-phages to recombinantly produced His-tagged-p27 or GST-PxxP-peptides was analyzed as described (28). • Construction of mutants and peptides. […]

Ends that are not written are not given here.

T2 sequence (Q13882 whole entry): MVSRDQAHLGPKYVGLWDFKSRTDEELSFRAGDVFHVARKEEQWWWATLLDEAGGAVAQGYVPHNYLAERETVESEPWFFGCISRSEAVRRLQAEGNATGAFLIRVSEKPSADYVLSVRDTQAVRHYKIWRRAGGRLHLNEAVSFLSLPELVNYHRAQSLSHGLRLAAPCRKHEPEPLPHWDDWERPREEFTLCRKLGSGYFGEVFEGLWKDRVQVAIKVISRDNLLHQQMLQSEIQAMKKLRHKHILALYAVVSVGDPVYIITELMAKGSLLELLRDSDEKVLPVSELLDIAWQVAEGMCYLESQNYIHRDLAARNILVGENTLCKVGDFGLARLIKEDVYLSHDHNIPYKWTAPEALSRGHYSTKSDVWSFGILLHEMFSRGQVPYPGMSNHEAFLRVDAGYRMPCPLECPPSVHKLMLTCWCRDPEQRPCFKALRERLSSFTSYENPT
T2 sequence (P46527 whole entry): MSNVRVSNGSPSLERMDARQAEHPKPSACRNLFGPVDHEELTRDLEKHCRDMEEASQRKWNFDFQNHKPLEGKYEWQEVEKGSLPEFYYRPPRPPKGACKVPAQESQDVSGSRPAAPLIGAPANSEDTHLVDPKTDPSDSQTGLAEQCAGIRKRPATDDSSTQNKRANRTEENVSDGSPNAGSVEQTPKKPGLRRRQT
T3 sequence (P46527 whole entry P91A/P92A/P94A/P95A/P188A/K189A/K190A/P191A): as the sequence (P46527 whole entry) above, with P91A, P92A, P94A, P95A, P188A, K189A, K190A, P191A counted along it
T1 sequence (Q13882 whole entry): as the sequence (Q13882 whole entry) above
T6 sequence (P46527 whole entry): as the sequence (P46527 whole entry) above
T4 sequence (P46527 whole entry): as above

For the compound `N#Cc1ccc(C(c2ccc(C#N)cc2)n2cncn2)cc1` [letrozole], the “median PFS” value in the assay with metastatic breast cancer was 10.2 months.
As for “F58-106: Flagged tagged K1-site containing peptide, p27 residues 58 to 106 (RKWNFDFQNHKPLEGKYEWQEVEKGSLPEFYYRPPRPPKGACKVPAQES; also: Flag tag, site not given here)”, in the assay with GST-Brk, the “association with GST-Brk” value is “interacted”. For the same compound, in assay [1], the “p27 Y74 phosphorylation by Brk” value was “only slightly reduced” and the “p27 Y88 phosphorylation by Brk” value was “decreased”.
Consider “GST-SH2: recombinant GST-tagged SH2 piece of Brk [reference compound]”, for which the “association with ΔK1/K3 p27” value with ΔK1/K3 p27 is reported as “bound”. Further, in assay [1], the “p27 Y74 phosphorylation by Brk” value is given as “did not reduce” and the “p27 Y88 phosphorylation by Brk” value is listed as “did not reduce”. Also, the “association with WT p27” value in the assay with WT p27 was “bound”.
With “K1: GST-fusion peptide, amino acids 85-102 of p27 (SEQ ID NO: 1) (PEFYYRPPRPPKGACKVP; also: GST-fusion peptide; listed as Homo sapiens)”, the “interaction with Brk SH3 domain” value with Brk SH3 domain was “weakly”.
Still for that read-out and setting: as for “K2: GST-fusion peptide, amino acids 108-123 of p27 (SEQ ID NO: 1) (DVSGSRPAAPLIGAPA; also: GST-fusion peptide; listed as Homo sapiens)”, the entry is “No SH3 domains interacted”; as for “K3: GST-fusion peptide, amino acids 182-197 of p27 (SEQ ID NO: 1) (GSVEQTPKKPGLRRRQ; also: GST-fusion peptide; listed as Homo sapiens)”, “strongly”.
Regarding “SH3 domain of Brk: Brk SH3 domain displayed on phages (SEQ ID NO: 2)”, the Kd in the assay with full-length p27 was 250 nM.

Usually Kd stands for the free concentration of one partner at which half of the binding sites on the other are occupied at equilibrium, for simple one-to-one binding.
